{
  "source": "paper PMC10046281",
  "about": "“MoS2-Carbon Nanodots as a New Electrochemiluminescence Platform for Breast Cancer Biomarker Detection”",
  "binders": {"B1": {"name": "Apt-SH (HER2 aptamer) (ssDNA)", "DNA": "AACCGCCCAAATCCCTAAGAGTCTGCACTTGTCATTTTGTATATGTATTTGGTTTTTGGCTCTCACAGACACACTACACACGCACA", "modifications": "5'-SH-(CH2)6 thiol"}},
  "target": "HER2 (recombinant human HER2 standard) (human, UniProt P04626 23-652)",
  "assay": "electrochemiluminescence aptasensor; aptamer immobilized on MoS2-NS, BSA blocked; [Ru(bpy)3]2+/CD read-out; LOD 1.84 fg/mL (not a Kd); HER2 diluted in 10 mM phosphate buffer, 0.4 M NaCl, pH 7.4; BSA-blocked electrode; incubation temperature not given in the material",
  "settings": "protein: recombinant",
  "data": [
    {"binder": "B1", "values": [
      {"measurement": "binding result", "result": "binds"}
    ]}
  ]
}
